Laboratory results taken from patent US20230374083A1.

Assays:
trastuzumab = experiment: cell-based or functional assay
[1] = target: IgG1 in the sera of humans
[2] = target: human IVIg (an intravenous human immunoglobulin)

Molecule	cleavage of human IgG1, SDS-PAGE of cleavage products (fold of wild-type IdeE) (trastuzumab)	further results
IdeE A59L (enzyme)	> 2	–
IdeE A59V (enzyme)	> 2	–
IdeE E97D (enzyme)	> 2	–
IdeE R280H (enzyme)	> 2	–
IdeE T8D (enzyme)	> 2	–
IdeE T8W (enzyme)	> 2	–
IdeE T24A (enzyme)	> 2	–
E97D_del18 (protein) MITSVWTKGVTPLTPEQFRYNNEDVIHAPYLAHQGWYDITKAFDGKDNLLCGAATAGNMLHWWFDQNKTEIEAYLSKHPDKQKIIFNNQELFDLKAAIDTKDSQTNSQLFNYFRDKAFPNLSARQLGVMPDLVLDMFINGYYLNVFKTQSTDVNRPYQDKDKRGGIFDAVFTRGDQTTLLTARHDLKNKGLNDISTIIKQELTEGRALALSHTYANVSISHVINLWGADFNAEGNLEAIYVTDSDANASIGMKKYFVGINAHRHVAISAKKIEGENIGAQVLGLFTLSSGKDIWQKLSHHHHHH	–	cleavage of serum IgG in vitro, reducing SDS-PAGE (25 kD Fc fragment) [1]: E97D_del18 can effectively and specifically cleave IgG1 in the sera of humans; cleavage of human IVIg in mouse serum or plasma in vitro, non-reducing SDS-PAGE [2]: E97D_del18 can effectively cleave human IVIg in both the sera and plasmas of mice; cleavage of serum IgG in vitro, reducing SDS-PAGE (25 kD Fc fragment) (IgG1 in the sera of mice): has very low or no activity of cleaving IgG1 in the sera of mice
